Results on eight molecules are retold here after patent US10138283 (AMBRX, dated 2018).

Like-named read-outs stand apart in the source and are kept apart here. [ ]: non-standard residue; d: D form. Phe(4-Ac) = CC(=O)c1ccc(C[C@H](N)C(=O)O)cc1

Common to all, as to assay: cell-based or functional assay
Assay [1] has as its target T1, G-CSF receptor on M-NFS60 cells (UniProt P40223 26-837, limits assumed).
T1 sequence (looked up): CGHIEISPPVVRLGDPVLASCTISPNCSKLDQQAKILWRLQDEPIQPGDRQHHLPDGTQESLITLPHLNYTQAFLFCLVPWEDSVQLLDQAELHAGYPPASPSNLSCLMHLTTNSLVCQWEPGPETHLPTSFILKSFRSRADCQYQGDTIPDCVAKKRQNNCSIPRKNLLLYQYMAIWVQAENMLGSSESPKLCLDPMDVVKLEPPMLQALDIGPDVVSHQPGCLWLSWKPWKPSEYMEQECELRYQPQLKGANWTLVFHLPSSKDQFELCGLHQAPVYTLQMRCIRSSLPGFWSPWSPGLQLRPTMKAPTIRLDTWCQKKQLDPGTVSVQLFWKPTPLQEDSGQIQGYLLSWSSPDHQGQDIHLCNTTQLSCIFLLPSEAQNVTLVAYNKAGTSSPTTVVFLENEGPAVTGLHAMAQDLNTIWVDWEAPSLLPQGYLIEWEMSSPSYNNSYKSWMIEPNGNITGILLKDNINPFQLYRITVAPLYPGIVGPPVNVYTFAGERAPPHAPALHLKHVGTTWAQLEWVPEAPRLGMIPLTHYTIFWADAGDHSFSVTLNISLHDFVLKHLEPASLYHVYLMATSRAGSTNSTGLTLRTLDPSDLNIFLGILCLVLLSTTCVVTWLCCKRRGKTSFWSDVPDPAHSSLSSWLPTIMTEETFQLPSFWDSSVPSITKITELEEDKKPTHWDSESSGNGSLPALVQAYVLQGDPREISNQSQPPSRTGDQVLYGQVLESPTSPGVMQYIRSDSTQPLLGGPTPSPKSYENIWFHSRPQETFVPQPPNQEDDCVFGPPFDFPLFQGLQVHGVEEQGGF

Assay [2] concerns the target T1, G-CSF receptor on M-NFS60 cells. This is another data set of the same source.
The target is the same in assay [3]. This is another data set of the same source.
The target is the same in assay [4]. The source holds these as a separate data set.
Assay [5] shares this target. This is another data set of the same source.

In assay [1], “Neulasta (pegfilgrastim) (from UniProt P09919 31-204) (ligand)” displayed a M-NFS60 proliferation assay, Avg EC50 [ng/ml] of 0.077 ng/mL and a M-NFS60 proliferation assay, Fold Diff EC50 [X] of 3.2 fold.

For “Neupogen (filgrastim) (from UniProt P09919 31-204) (ligand)”, in assay [1], the M-NFS60 proliferation assay, Avg EC50 [ng/ml] is 0.025 ng/mL and the M-NFS60 proliferation assay, Fold Diff EC50 [X] was 1 fold.

B1: wild-type bovine G-CSF (ligand)
chain: MTPLGPARSLPQSFLLKCLEQVRKIQADGAELQERLCAAHKLCHPEELMLLRHSLGIPQAPLSSCSSQSLQLTSCLNQLHGGLFLYQGLLQALAGISPELAPTLDTLQLDVTDFATNIWLQMEDLGAAPAVQPTQGAMPTFTSAFQRRAGGVLVASQLHRFLELAYRGLRYLAEP
B1: the “M-NFS60 proliferation assay, Avg EC50 [ng/ml]” value in assay [2] stood at 0.053 ng/mL. For the same molecule, the “M-NFS60 proliferation assay, Fold Diff EC50 [X]” value in assay [3] stood at 1 fold.

B2: 20k PEG-bL3 (bG-CSF L3pAF, 20K PEG) (ligand)
chain: TP[Phe(4-Ac)](PEG 20 kDa)GPARSLPQSFLLKCLEQVRKIQADGAELQERLCAAHKLCHPEELMLLRHSLGIPQAPLSSCSSQSLQLTSCLNQLHGGLFLYQGLLQALAGISPELAPTLDTLQLDVTDFATNIWLQMEDLGAAPAVQPTQGAMPTFTSAFQRRAGGVLVASQLHRFLELAYRGLRYLAEP
modifications: not fully specified (N-terminus)
In turn, B2 displayed a M-NFS60 proliferation assay, Avg EC50 Values in assay [4] of 0.477 ng/mL.

B3: 20k PEG-bS62 (bG-CSF S62pAF, 20K PEG) (ligand)
chain: MTPLGPARSLPQSFLLKCLEQVRKIQADGAELQERLCAAHKLCHPEELMLLRHSLGIPQAPL[Phe(4-Ac)](PEG 20 kDa)SCSSQSLQLTSCLNQLHGGLFLYQGLLQALAGISPELAPTLDTLQLDVTDFATNIWLQMEDLGAAPAVQPTQGAMPTFTSAFQRRAGGVLVASQLHRFLELAYRGLRYLAEP
In the case of B3, the “M-NFS60 proliferation assay, Avg EC50 Values” in assay [5] turned out to be 0.15 ng/mL.

B4: 20k PEG-bR7 (bG-CSF R7pAF, 20K PEG) (ligand)
chain: MTPLGPA[Phe(4-Ac)](PEG 20 kDa)SLPQSFLLKCLEQVRKIQADGAELQERLCAAHKLCHPEELMLLRHSLGIPQAPLSSCSSQSLQLTSCLNQLHGGLFLYQGLLQALAGISPELAPTLDTLQLDVTDFATNIWLQMEDLGAAPAVQPTQGAMPTFTSAFQRRAGGVLVASQLHRFLELAYRGLRYLAEP
As for B4, the “M-NFS60 proliferation assay, Avg EC50 Values” in assay [5] was 0.348 ng/mL.

B5: bG-CSF T133pAF-20K PEG (ligand)
chain: MTPLGPARSLPQSFLLKCLEQVRKIQADGAELQERLCAAHKLCHPEELMLLRHSLGIPQAPLSSCSSQSLQLTSCLNQLHGGLFLYQGLLQALAGISPELAPTLDTLQLDVTDFATNIWLQMEDLGAAPAVQP[Phe(4-Ac)](PEG 20 kDa (hydroxylamine/oxyamino PEG))QGAMPTFTSAFQRRAGGVLVASQLHRFLELAYRGLRYLAEP
For the molecule B5, the “M-NFS60 proliferation assay, Avg EC50 Values (batch NK1)” value in assay [5] was determined as 0.258 ng/mL. In addition, the “M-NFS60 proliferation assay, Avg EC50 [ng/ml] (batch NK2)” value in assay [2] came out at 0.27 ng/mL. Also, the “M-NFS60 proliferation assay, Fold Diff EC50 [X] vs. WT bG-CSF (batch NK2)” value in assay [3] was determined as 5.1 fold.

B6: 20k PEG-bR166 (bG-CSF R166pAF, 20K PEG) (ligand)
chain: MTPLGPARSLPQSFLLKCLEQVRKIQADGAELQERLCAAHKLCHPEELMLLRHSLGIPQAPLSSCSSQSLQLTSCLNQLHGGLFLYQGLLQALAGISPELAPTLDTLQLDVTDFATNIWLQMEDLGAAPAVQPTQGAMPTFTSAFQRRAGGVLVASQLHRFLELAY[Phe(4-Ac)](PEG 20 kDa)GLRYLAEP
Regarding B6, in assay [5], the “M-NFS60 proliferation assay, Avg EC50 Values” turned out to be 0.363 ng/mL.
